Holding throughout (assay type): biochemical, Alternaria alternata
Data set [1] deals with CCC(O)(CC(=O)O)C(=O)O. Kind of data set: UPLC-MS quantification of 3EMA formed. The following applies: 250 mM potassium phosphate pH 7.0, 30 °C.
For data set [2], the system named is CCC(C(=O)O)C(O)C(=O)O. Kind of data set: UPLC-MS quantification of OVA formed. The following applies: 1 mM NAD+, 5 mM MnCl2, 1 mM DTT, MOPS-KCl pH 7.5, 30 °C.
In data set [3] the test system is CCC(=O)C(=O)O. Description: UPLC-MS quantification of 2EMA formed. The following applies: 1 mM acetyl-CoA, 10 mM MgCl2, potassium phosphate pH 7.5, 30 °C.

One may read the Km as the substrate concentration at which the rate is half of its maximum.

Take IPMDH (Alternaria alternata): the Michaelis-Menten constant (Km) in data set [1] is given as 786.26 µM.
Turning to ISMD (Alternaria alternata), the Michaelis-Menten constant (Km) in data set [2] amounted to 87.20 µM.
For IPMS (Alternaria alternata), the Michaelis-Menten constant (Km) in data set [3] was 164.36 µM.

The record behind these values is publication PMC12140367, “Discovery, Herbicidal Activity and Biosynthesis of a Novel Natural Tetramic Acid from Alternaria Species” (Advanced Science, 2025).
